Experiment: soluble on expression in E. coli; label from the status in PepcDB or PDB records

Sequence	soluble on expression in E. coli
MSLKRRQTNIIGVYLADYGGSFYGELLEGIKKGLALFDYEMIVCSGKKSHLFIPEKMVDGAIILDWTFPTKEIEKFAERGHSIVVLDRTTEHRNIRQVLLDNRGGATQAIEQFVNVGSKKVLLLSGPEKGYDSQERLAVSTRELTRFGIPYEIIQGDFTEPSGYAAAKKILSQPQTEPVDVFAFNDEMAIGVYKYVAETNYQMGKDIRIIGFDNSELGAFVQPRLATIAYSKHRWGMVAAEKIIHLMRGEAAESEHIYTRFIEGESFPSEGHHHHHH	soluble
KLKSVEKKLSESESRLELALEAANMGTWSWNIKRNEIFWSEQVLYIFGIKPEEFKGDFESYLNLIPSNERVQVEEYITNVLAKLQKEFFFDHSIQTPSGVKKRVYCKGKLYADHAGMPDSMTGVVLDVT	not soluble
MGSDKIHHHHHHMTSSRSRYLSVMGRELHVTEWGDEAAPALVMWHGLARTGRDFDTLAAHFCDRYRVVCPDTLGRGLSGWSRVPRRDYTLAAYMKHALELLGLLGIDRVTWIGTSMGGALGMLLAAGPLAGRMDRLVMNDIGPTLNPVAVERIRNYLAQHPSFRTMTEFEAYLRQVYRPYGFQTDLEWRRMTETSARRRGDGRITPHYDPAVMRVFAETAGDYEAWGEYDLITCPTLVLRGAESDLLLPEVAQEMTRRGPKARLVTVAGCGHAPSLNVPEQIGVIEDFLA	not soluble
MEEYEFLVRVREAGGFDIEHLMDTKPSSCVIGCREFDNNDDYNAHIVLFARMGIHKYNMIQGTNLQLSCVEKYNYRSPRVYSAFYITLIAKDPDACNSLVTFQTRVVEEGFNMTKLSCNIARPKPGPQENAALPRHSVDLEPVKKSELLTHDWIRLYMELAFLKAHLRSPKNPNLSKLVIVMVAIETKDNMEPPSERLKARNAFFYIKYKYHANKGRGPKRRLGHKTPDRIAIVRRTLDKNTGYLTLEFPEPIL	soluble
GPGSMMASFTPLDNFKSRSRGVMPTGIVIDKSCRVYVTQIPLERIERDGASAMKSEFEVYGPLESYKMFTDRSGRFIGSALCTYRNPADASMAVYCMDGVEVEGSTLHVEPAKEHGVVLLASGSSSGGNGQHRDHSRGFLRDTQRQWGRGGRGGAGLLGAGRGSGYSTTGREDASNTSELDLCAEELGLAATDGVSPSAANGKWSHDKYEMMAEGKDMDEVLG	not soluble
EVMLVESGGGLVKPGGSLKLSCAASGFTFSSYTMSWVRQTPEKRLEWVATISSGGGNTYYPDSVKGRFTISRDIAKNTLYLQMSSLRSEDTALYYCTRLGDYGYAYTMDYWGQGTSVTVSSAKTTPPSVYPLAPGGGGGGGAMVTLGCLVKGYFPEPVTVTWNSGSLSSGVHTFPAVLQSDLYTLSSSVTVPSSPWPSETVTCNVAHPASSTKVDKKIVPRDC	soluble
MKSHKMMGGGISMHYITACLKIISDKDLNEIMKEFKKLEEETNKEEGCITFHAYPLEPSERKIMLWEIWENEEAVKIHFTKKHTIDVQKQELTEVEWLMKSNVND	soluble
MGSDKIHHHHHHMPLSMNREVFITCAVTGSGGTQDRSPHVPRSPKEIAESAIAAAKAGAAIVHCHVRDPETGAPSRDLGLYREVTDRIRESDTDVVLNLTAGMGGDIVFGGVERPLPVTEDGTDMIGASARVAHVAECLPEICTLDCGTMNFAEADYVMTNTPGMLQAMGQMMTDLGVKPEIEAFDTGHLWYAKQLVKDGVLKSDALVQLCMGVPWGAPNDLNTFMAMVNNVPDDWNWSAFSLGRDQMAYVAASVLAGGNVRVGLEDNLYLDKGVLAENWQLVERAGTIVSNLGARVITPAEVREKLGLQKRAPITK	not soluble
MGSDKIHHHHHHMTLDPDAKLPETEEGTVVYNTDPLIIRSHYEIDYIHSYAQDSEFFRALGRKKLMGSKCKKCGYVYATPRSHCMMCGSETEWYELPLKGRVHTYTTCYFSGEEFLNETPFNLILVEFDGVNSLFMSRLIGAETKDIYIGMPVKAKFRRNLKMNVTDVYFVPDVEK	not soluble
MAHHHHHHMENINRVNKYDNPNEAIKNMVDKIINKKEMMKYFLDAQDIFEYHDVGKKGEVDITLFPKMARQLKQVYDIRDINNFKKEMKIKKIYKMDLQLFFTLLKRKILYSINNSNNNENDNSSFRQHYDILDMKKKQLLDVDELRTYLGLMGDKINPDDFNILLRYNLINNHRINKDDIVLDENKEIKNISFNAYVDMLTCYKYI	not soluble
MINSSMQFDRILASQPGISLIAEKRITRSASYFPDHFPKRPVLPMTVLLECKLNLAKEFIARAKYDRAYRISELRKIKMNEFVHPGDVVVCQVKVKQQMDDELILSYRCEVDGKRVCVVDIVLIPKGKLEHHHHHH	not soluble
KDIGSLTLALEQLKEKLRLKGYFDEENKLPKPHFPKRVAVITSQNSAAWADMKKIASKRWPMCELVCINTLMQGEGCVQSVVESIVYADSFHDTK	not soluble
MIKEQVKSLWKLCFDDSEAFIELYFRLRYNNEVNLAIQSGEEVIAALQMLPYPMTFCNKIVPTSYISGACTHPDYRAKGVMRELLSQSFARMLRNGVLFSTLIPAEPWLFGYYAKTGYTPAFRISHKVFSLSELTIGPEPDTMIEETTEYQEDYYQYLTGKLSERACCLQHTPTDFKVVLADLALTQNTVLIARKDNRVTGIAVVYKHDDSSYINELFADNEAVRAQLLYRAGLRNGTERIILQLPPVESLPSVPLGMARIIDARAVLQLYAAGCPEVEMNIELTDEQLSVNNGYYYLCKGKCMTSEVRLPGVHTRMTIAELSEKILGEMQPYMSLMMN	not soluble
MAPSAAVGNYGEVIDYLQRHIRREMERQDVPGLALALVDDQQLVWARGFGYADRQHRINASEHTAFHAGDLSKLLIASATLQLAERGQLSLDAPLQDTLREFYVRSRFHADQSEADRAITFRRLLSHQSGLPGEHLPPLFGERPNSLGQLPAKVSGVWLSNPPGTQVAHSNLGYELVGAAIERNTGKHFEQHMREHLLDPLQMTRSSFARNALPQAQRAHGYSGGGRPGSASDLPVNDLWSSPVDLSRFVRMLFANGRHKERQLLRKHSVEEMFRQQNAGNALDFDCQVGLAWFLSPCGSAPLEGGIRHYEYASATPGFSAHLILLPEQRLAAIVMSNADDSGSLTASLARQAASLMLQVKQGARRPAVQLEHHHHHH	not soluble
MSWKHIKIPNGDTMIFCNSFITRKSSMNIVVTHTPIVTTLEMQKAYEPLAKHNVNIFAFDFSGTGKSDGYEKDFSRNSIVKDLDSVITYIEKNYSSNIHLYGNTGIGGMFAQYYACSDNKLKSFAQFACVDYKNTTGVGYTYLTVKLLNFFFKFLPNFHITVKPPKYKGYNEVYDNEFYKIFEKKNPHIWKNSTKIINTMLECFIAKDSKIKDGVNIPTLVFKTLHDRYFKTQYFDSYYNSLKCKKKLVEINNVHNSYYIDSEKFCQEAYDWFVENQ	not soluble
MAHHHHHHMSNNYFNNEAPPDNINNLSYDEGLEQQYNFTDNEEEIFSSFFSDNKKNICLPKSLREHMLIEYTAMFVNIEGDIAEFYLKLDNDVLIKFPFLHVDHPLHRYYEFVKLNTKKRLITKYPKIIPSPLKDLFQYVTDLENTKVINNEIKSKKLKEKQIEHVKNKKGNKQILMKQKENQSYSSLFMRYMQSDDEKSNSTVENDKNEEHNEDTLSNESMMEIDNIIKKLKDKKDKSSMQTARFYLQCIEKLKFLQYGTKQYKYFVQKLLYDQNRLNVNNSDIKVRQKIHSTDFLEFLLKTDEHKKSLDNVINEDIYEQQNSHETETERDDLQTMQDYRR	not soluble
MSLKIAEAAARSGLSIDTIRFYERSGLLPPIARGADGMRRFSPETVDWLRLLASLRETGMELRAMRRFAELYRQGDATIPERRRILQDHAASLNGRRAALDRCAALLAHKLQRYCEIEGEGHHHHHH	not soluble
MAHHHHHHMSTVEELKFIWKFLFSHMNTEKSKEEICDEKKYEENIILLKKLMRTENIKFDQKYNAINILEKLKDIEDIQYEDILNDYAKNFLTFLKGSFEKVAEEIQINDKISFRRNELIKQDLNNKLQNLNHNYNLEYINLNKCLGTEDFESQLNASLKFNSLKDILSKLLKEMKDYEIQYNNLSDTDKFLDMKICELENYLNNTNQNS	not soluble
MTTRKPFIICDFDGTITMNDNIINIMKTFAPPEWMALKDGVLSKTLSIKEGVGRMFGLLPSSLKEEITSFVLEDAKIREGFREFVAFINEHEIPFYVISGGMDFFVYPLLEGIVEKDRIYCNHASFDNDYIHIDWPHSCKGTCSNQCGCCKPSVIHELSEPNQYIIMIGDSVTDVEAAKLSDLCFARDYLLNECREQNLNHLPYQDFYEIRKEIENVKEVQEWLQNKNAGESSLKLEHHHHHH	soluble
MGHHHHHHSHMRPLTEEETRVMFEKIAKYIGENLQLLVDRPDGTYCFRLHNDRVYYVSEKIMKLAANISGDKLVSLGTCFGKFTKTHKFRLHVTALDYLAPYAKYKVWIKPGAEQSFLYGNHVLKSGLGRITENTSQYQGVVVYSMADIPLGFGVAAKSTQDCRKVDPMAIVVFHQADIGEYVRHEETLT	soluble
MSLSNPLNDLSKKYLTKGLNLASWAEANKITSANPKDWKYNEAIIKLQAEQGLLGIRFPIDLDLYVVDRLNVLNGTKKKIEIEPMLYTLMDSMNIWTKRYGLSLTIDYHAYDGSYNRASSKDPKFREAVSSLWRVVAQHFVKEKREDLFFELTNEPCLSLPEGEYIDQTDWTLLAQMMIDSIRRVDKTRPIIFGDTKWYSLDELIKNKPLKDPYVIYCFHMYDPFLFTHQGASWANMGTMKNIPFPYSPERWSTEFRDFGIVDGTPAWVKDLAKRYYQEGNKQFIKNRLAKVKNWAYEYNVPLICNEWGALPNTAKIEDLNAYFKTMGEIFEEMDISWQVWFGIMDSDYKLLPGMAEALHLKEGHHHHHH	soluble
MPQNAQEYYEKVKKFTKKKDGAIRAIEDTKKAMEKKAATKSAKAGRKLQASRKKHWYDRFRWFVSSDGFLVVGGRDADTNEEIFKKYMEKRDIVFHTQTPGAPLTVVKTGGKEVPDSTLQEVSQFAVSYSSLWKAGQFSGDCYWIKSEQVTKTPESGEYLKKGAFVIRGERNYFKDVPLGIAVGLELKGETRIIGGPASAVRKHGDYILEIIPGKFNQNDISKKIYRIYADELNDPRFVKQIASPDQIAMMIPAGESDLRNQKPEKKGQGFGPEGEGYETPEMEAGFEDLKGEIDEESGENAGEEFADEEFAEEIGEGSEVKVKAEAREGNEEIIEIRGVKKE	not soluble
MGSDKIHHHHHHMTNQTQSMALMVPQSSSSLEAYIHSAHNIPMLEANEEYELAKRLQETGDIQAAKQLIMSHLRFVIHVAKGYAGYGLPQADLIQEGNIGLMKAVKRFDPDVGVRLVSFAVHWIKAEIHEYVLKNWRIVKVATTKAQRKLFFNLRKAKKRLGWFSDEEVTMVAENLGVSKSDVTEMESRMAAQDPAFDLASDNDDDQDYAPVHYLEDHSSDIASQVENDNFEADNQTRLLAAIKTLDERSQHILQARWLDEEKTTLQELAATYQVSAERIRQLEKNAMNKLKGRMEM	not soluble
MGSDKIHHHHHHMLYDVAIIGGGPSGAAAAEILARAGHSTILIERNLANVKPCGGAIPLGLIEEFDIPDELVEKKLTRMSVRSPKGETIFMHMPNGYVGMVRRERFDRYLREKAQKAGAEVVEALVKKIERSVDRFTLQLFNKEGEALPPVEASYVIGADGANSKTADELGFPPNDLKVIAMQQRFHYCDELKPYEELVEIWFDGEVSPDFYGWIFPKTDHIAIGTGTEEHRNDIKQLQHRFVEKIGIAEKPYLNEAAKIPMKPRRSFTQERAILVGDAAGLVTPANGEGIFFAMRSGKLGAEAMIERIRNNTPLSSYEKKFRKLYSPIFFGLQVLQSVYYKSDRLRESFVAICRDKDVQGITFDSYLYKKMVPAPWSVQMKIMAKNIYHLAKGS	not soluble
